Assays:
[1] = tested on: TcbA (native, from W-14 broth)
TcdAiii = target: T1, TcdAiii (Photorhabdus luminescens strain W-14); experiment: native PAGE (one major band), gel filtration 860 kDa, 1 to 1 molar ratio by densitometry
T1 construct: Processed peptide of TcdA; also called A2
T1 chain: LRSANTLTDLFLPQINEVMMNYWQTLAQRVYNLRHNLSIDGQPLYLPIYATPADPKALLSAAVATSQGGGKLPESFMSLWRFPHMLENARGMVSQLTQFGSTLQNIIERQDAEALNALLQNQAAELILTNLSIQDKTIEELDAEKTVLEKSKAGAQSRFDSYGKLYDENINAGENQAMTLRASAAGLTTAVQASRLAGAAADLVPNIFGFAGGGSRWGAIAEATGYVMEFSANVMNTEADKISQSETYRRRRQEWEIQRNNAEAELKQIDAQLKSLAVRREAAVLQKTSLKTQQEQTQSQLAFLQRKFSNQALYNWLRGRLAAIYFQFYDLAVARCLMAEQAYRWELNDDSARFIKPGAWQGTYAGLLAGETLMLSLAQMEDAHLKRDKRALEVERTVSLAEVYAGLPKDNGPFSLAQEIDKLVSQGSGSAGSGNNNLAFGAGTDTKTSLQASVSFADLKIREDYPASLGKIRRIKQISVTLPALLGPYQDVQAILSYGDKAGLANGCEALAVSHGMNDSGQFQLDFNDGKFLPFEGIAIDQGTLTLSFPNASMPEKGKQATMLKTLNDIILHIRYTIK

TcbAiii = target: T2, TcbAiii (Photorhabdus luminescens strain W-14); experiment: native PAGE (one major band), gel filtration 860 kDa, same molar concentration
T2 construct: Processed peptide of TcbA; also detected in E. coli preparations expressing tcbA constructs; also called B2; 58 kDa peptide of toxin B
T2 chain: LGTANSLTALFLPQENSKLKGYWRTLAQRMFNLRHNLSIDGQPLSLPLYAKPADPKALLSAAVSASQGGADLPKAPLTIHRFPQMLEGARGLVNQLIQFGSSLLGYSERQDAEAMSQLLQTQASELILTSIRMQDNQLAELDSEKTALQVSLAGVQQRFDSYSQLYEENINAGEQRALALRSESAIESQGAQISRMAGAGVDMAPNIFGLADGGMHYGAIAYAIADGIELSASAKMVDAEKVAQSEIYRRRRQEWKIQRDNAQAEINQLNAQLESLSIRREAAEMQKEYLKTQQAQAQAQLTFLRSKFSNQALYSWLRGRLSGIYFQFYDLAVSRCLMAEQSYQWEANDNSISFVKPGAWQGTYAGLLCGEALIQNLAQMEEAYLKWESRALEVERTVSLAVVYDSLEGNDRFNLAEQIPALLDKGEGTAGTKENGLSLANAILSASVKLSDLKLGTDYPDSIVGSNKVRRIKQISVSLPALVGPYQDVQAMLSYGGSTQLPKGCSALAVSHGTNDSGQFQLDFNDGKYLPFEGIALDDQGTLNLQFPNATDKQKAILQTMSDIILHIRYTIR

For “38 kDa W-14 Photorhabdus metalloprotease”, the TcbA (% of total protein) after 38 kDa protease treatment (control 58) (% of total protein) [1] was 18 and the “cleavage of TcbA followed by SDS-PAGE densitometry” value [1] was “the amount of peptides TcbAii and TcbAiii increased about 3-fold while the amount of TcbA peptide decreased proportionally”.

With “58 kDa W-14 Photorhabdus metalloprotease” the “cleavage of TcbA followed by SDS-PAGE densitometry” value [1] was “the amount of peptides TcbAii and TcbAiii increased about 3-fold while the amount of TcbA peptide decreased proportionally”.

B1: TcdAii (other)
chain: LIGYNNQFSGRASQYVAPGTVSSMFSPAAYLTELYREARNLHASDSVYYLDTRRPDLKSMALSQQNMDIELSTLSLSNELLLESIKTESKLENYTKVMEMLSTFRPSGATPYHDAYENVREVIQLQDPGLEQLNASPAIAGLMHQASLLGINASISPELFNILTEEITEGNAEELYKKNFGNIEPASLAMPEYLKRYYNLSDEELSQFIGKASNFGQQEYSNNQLITPVVNSSDGTVKVYRITREYTTNAYQMDVELFPFGGENYRLDYKFKNFYNASYLSIKLNDKRELVRTEGAPQVNIEYSANITLNTADISQPFEIGLTRVLPSGSWAYAAAKFTVEEYNQYSFLLKLNKAIRLSRATELSPTILEGIVRSVNLQLDINTDVLGKVFLTKYYMQRYAIHAETALILCNAPISQRSYDNQPSQFDRLFNTPLLNGQYFSTGDEEIDLNSGSTGDWRKTILKRAFNIDDVSLFRLLKITDHDNKDGKIKNNLKNLSNLYIGKLLADIHQLTIDELDLLLIAVGEGKTNLSAISDKQLATLIRKLNTITSWLHTQKWSVFQLFIMTSTSYNKTLTPEIKNLLDTVYHGLQGFDKDKADLLHVMAPYIAATLQLSSENVAHSVLLWADKLQPGDGAMTAEKFWDWLNTKYTPGSSEAVETQEHIVQYCQALAQLEMVYHSTGINENAFRLFVTKPEMFGAATGAAPAHDALSLIMLTRFADWVNALGEKASSVLAAFEANSLTAEQLADAMNLDANLLLQASIQAQNHQHLPPVTPENAFSCWTSINTILQWVNVAQQLNVAPQGVSALVGLDYIQSMKETPTYAQWENAAGVLTAGLNSQQANTLHAFLDESRSAALSTYYIRQVAKAAAAIKSRDDLYQYLLIDNQVSAAIKTTRIAEAIASIQLYVNRALENVEENANSGVISRQFFIDWDKYNKRYSTWAGVSQLVYYPENYIDPTMRIGQTKMMDALLQSVSQSQLNADTVEDAFMSYLTSFEQVANLKVISAYHDNINNDQGLTYFIGLSETDAGEYYWRSVDHSKFNDGKFAANAWSEWHKIDCPINPYKSTIRPVIYKSRLYLLWLEQKEITKQTGNSKDGYQTETDYRYELKLAHIRYDGTWNTPITFDVNKKISELKLEKNRAPGLYCAGYQGEDTLLVMFYNQQDTLDSYKNASMQGLYIFADMASKDMTPEQSNVYRDNSYQQFDTNNVRRVNNRYAEDYEIPSSVSSRKDYGWGDYYLSMVYNGDIPTINYKAASSDLKIYISPKLRIIHNGYEGQKRNQCNLMNKYGKLGDKFIVYTSLGVNPNNSSNKLMFYPVYQYSGNTSGLNQGRLLFHRDTTYPSKVEAWIPGAKRSLTNQNAAIGDDYATDSLNKPDDLKQYIFMTDSKGTATDVSGPVEINTAISPAKVQIIVKAGGKEQTFTADKDVSIQPSPSFDEMNYQFNALEIDGSGLNFINNSASIDVTFTAFAEDGRKLGYESFSIPVTLKVSTDNALTLHHNENGAQYMQWQSYRTRLNTLFARQLVARATTGIDTILSMETQNIQEPQLGKGFYATFVIPPYNLSTHGDERWFKLYIKHVVDNNSHIIYSGQLTDTNINITLFIPLDDVPLNQDYHAKVYMTFKKSPSDGTWWGPHFVRDDKGIVTINPKSILTHFESVNVLNNISSEPMDFSGANSLYFWELFYYTPMLVAQRLLHEQNFDEANRWLKYVWSPSGYIVHGQIQNYQWNVRPLLEDTSWNSDPLDSVDPDAVAQHDPMHYKVSTFMRTLDLLIARGDHAYRQLERDTLNEAKMWYMQALHLLGDKPYLPLSTTWSDPRLDRAADITTQNAHDSAIVALRQNIPTPAPLS
notes: Processed peptide of TcdA; also called A1
B1: binds (TcdAiii).

B2: TcbAii (other)
chain: FIQGYSDLFGNRADNYAAPGSVASMFSPAAYLTELYREAKNLHDSSSIYYLDKRRPDLASLMLSQKNMDEEISTLALSNELCLAGIETKTGKSQDEVMDMLSTYRLSGETPYHHAYETVREIVHERDPGFRHLSQAPIVAAKLDPVTLLGISSHISPELYNLLIEEIPEKDEAALDTLYKTNFGDITTAQLMSPSYLARYYGVSPEDIAYVTTSLSHVGYSSDILVIPLVDGVGKMEVVRVTRTPSDNYTSQTNYIELYPQGGDNYLIKYNLSNSFGLDDFYLQYKDGSADWTEIAHNPYPDMVINQKYESQATIKRSDSDNILSIGLQRWHSGSYNFAAANFKIDQYSPKAFLLKMNKAIRLLKATGLSFATLERIVDSVNSTKSITVEVLNKVYRVKFYIDRYGISEETAAILANINISQQAVGNQLSQFEQLFNHPPLNGIRYEISEDNSKHLPNPDLNLKPDSTGDDQRKAVLKRAFQVNASELYQMLLITDRKEDGVIKNNLENLSDLYLVSLLAQIHNLTIAELNILLVICGYGDTNIYQITDDNLAKIVETLLWITQWLKTQKWTVTDLFLMTTATYSTTLTPEISNLTATLSSTLHGKESLIGEDLKRAMAPCFTSALHLTSQEVAYDLLLWIDQIQPAQITVDGFWEEVQTTPTSLKVITFAQVLAQLSLIYRRIGLSETELSLIVTQSSLLVAGKSILDHGLLTLMALEGFHTWVNGLGQHASLILAALKDGALTVTDVAQAMNKEESLLQMAANQVEKDLTKLTSWTQIDAILQWLQMSSALAVSPLDLAGMMALKYGIDHNYAAWQAAAAALMADHANQAQKKLDETFSKALCNYYINAVVDSAAGVRDRNGLYTYLLIDNQVSADVITSRIAEAIAGIQLYVNRALNRDEGQLASDVSTRQFFTDWERYNKRYSTWAGVSELVYYPENYVDPTQRIGQTKMMDALLQSINQSQLNADTVEDAFKTYLTSFEQVANLKVISAYHDNVNVDQGLTYFIGIDQAAPGTYYWRSVDHSKCENGKFAANAWGEWNKITCAVNPWKNIIRPVVYMSRLYLLWLEQQSKKSDDGKTTIYQYNLKLAHIRYDGSWNTPFTFDVTEKVKNYTSSTDAAESLGLYCTGYQGEDTLLVMFYSMQSSYSSYTDNNAPVTGLYIFADMSSDNMTNAQATNYWNNSYPQFDTVMADPDSDNKKVITRRVNNRYAEDYEIPSSVTSNSNYSWGDHSLTMLYGGSVPNITFESAAEDLRLSTNMALSIIHNGYAGTRRIQCNLMKQYASLGDKFIIYDSSFDDANRFNLVPLFKFGKDENSDDSICIYNENPSSEDKKWYFSSKDDNKTADYNGGTQCIDAGTSNKDFYYNLQEIEVISVTGGYWSSYKISNPININTGIDSAKVKVTVKAGGDDQIFTADNSTYVPQQPAPSFEEMIYQFNNLTIDCKNLNFIDNQAHIEIDFTATAQDGRFLGAETFIIPVTKKVLGTENVIALYSENNGVQYMQIGAYRTRLNTLFAQQLVSRANRGIDAVLSMETQNIQEPQLGAGTYVQLVLDKYDESIHGTNKSFAIEYVDIFKENDSFVIYQGELSETSQTVVKVFLSYFIEATGNKNHLWVRAKYQKETTDKILFDRTDEKDPHGWFLSDDHKTFSGLSSAQALKNDSEPMDFSGANALYFWELFYYTPMMMAHRLLQEQNFDAANHWFRYVWSPSGYIVDGKIAIYHWNVRPLEEDTSWNAQQLDSTDPDAVAQDDPMHYKVATFMATLDLLMARGDAAYRQLERDTLAEAKMWYTQALNLLGDEPQVMLSTTWANPTLGNAASKTTQQVRQQVLTQLRLNSRVKTPL
notes: Processed peptide of TcbA; also called B1; 201 kDa peptide
B2: binds (TcbAiii).
